Measured values taken from publication PMC10953559.
Several values for one entry are separate records, joined by “and”; a condition that tells them apart may be missing. Identical values can stand only once.

Target: GroEL14 as used with the substrate proteins NanA and DapA (E. coli) (UniProt P0A6F5)
Assay: native MS; CE-MS; 6 µM GroEL14 with 6 or 12 µM substrate monomers, denatured in 6.5 M GuHCl and 9 mM DTT and diluted 30-fold into GroEL14 buffer pH 7.5 (200 mM GuHCl, 0.3 mM DTT left); no ATP, no GroES; BGE 50 mM ammonium acetate pH 6.7

B1: dihydrodipicolinate synthase, denatured monomer (DapA) (enzyme)
chain: MFTGSIVAIVTPMDEKGNVCRASLKKLIDYHVASGTSAIVSVGTTGESATLNHDEHADVVMMTLDLADGRIPVIAGTGANATAEAISLTQRFNDSGIVGCLTVTPYYNRPSQEGLYQHFKAIAEHTDLPQILYNVPSRTGCDLLPETVGRLAKVKNIIGIKEATGNLTRVNQIKELVSDDFVLLSGDDASALDFMQLGGHGVISVTANVAARDMAQMCKLAAEGHFAEARVINQRLMPLHNKLFVEPNPIPVKWACKELGLVATDTLRLPMTPITDSGRETVRAALKHAGLL
What does the source list for B1?
share of the total signal intensity, GroEL14-DapA2 complex: 80%; stoichiometry N (DapA monomers per GroEL14): 1 and 2
